Reference: PMC5550728, “Retinoschisin Facilitates the Function of L-Type Voltage-Gated Calcium Channels” (Frontiers in Cellular Neuroscience, 2017)

Target: T1, human full-length RS1 fused to the GAL4 DNA binding domain (pBind-RS1) (human, UniProt O15537 1-224)
T1 construct: 224 amino acids), so with its own signal peptide in the construct; source: Cos1 cells, transfected (mammalian two-hybrid fusion)
T1 sequence (looked up): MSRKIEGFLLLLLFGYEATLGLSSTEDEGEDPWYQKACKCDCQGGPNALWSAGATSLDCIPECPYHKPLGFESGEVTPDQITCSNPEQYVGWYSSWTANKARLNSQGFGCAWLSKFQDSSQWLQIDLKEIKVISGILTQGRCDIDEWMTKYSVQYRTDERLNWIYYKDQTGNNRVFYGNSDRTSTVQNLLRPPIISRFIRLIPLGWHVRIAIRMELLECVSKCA
Experiment: two-hybrid; mammalian two-hybrid (luciferase reporter) in Cos1 cells: pBind-RS1 (GAL4 DNA binding domain, bait), pACT-Cav1.4-N terminal (VP16 activation domain), pG5Luc, 100 ng each; controls with empty pBind or pACT; n = 6
Settings: partners not purified

B1: human Cav1.4 N-terminal fragment fused to the VP16 activation domain (pACT-Cav1.4-N terminal) (domain or fragment)
chain: not shown
notes: the methods give 1-1481 bp from ATG, which is about 493 codons; the exact C-terminal limit follows from the reverse primer; also called hCav1.4-N; source: Cos1 cells, transfected (mammalian two-hybrid fusion)
- relative luciferase activity, fold over the controls: ≥ 4 fold
